Here are results for 12 molecules from patent US20260001953A1 (TWIST BIOSCIENCE, published 2026).

Where a chain is given by its changes, count along the chain named.

The labels stand for the following.
B1: SIGLEC-8-59 (antibody, human IgG1, kappa, V domains shown)
VH: EVQLLESGGGLVQPGGSLRLSCAASGFTFTSYAVSWVRQAPGKGLEWVSSISGSGGSAYYADSVKGRFTISRDNSKNTLYLQMNSLRAEDTAVYYCARDTVGYGMDVWGQGTLVTVSS
VL: DIQMTQSPSSLSASVGDRVTITCRASQTISGYLSWYQQKPGKAPKLLIYSASRLHSGVPSRFSGSGSGTDFTLTISSLQPEDFATYYCQQGYSTPLTFGGGTKVEIKR
notes: tested as expressed and purified mAb
B2: SIGLEC-8-30 (antibody, human IgG1, kappa, V domains shown)
VH: EVQLLESGGGLVQPGGSLRLSCAASGFTFSHYALSWVRQAPGKGLEWVSIISGSGDTTYYADSVKGRFTISRDNSKNTLYLQMNSLRAEDTAVYYCAKATYFYDSSGYRRATYFDYWGQGTLVTVSS
VL: DIQMTQSPSSLSASVGDRVTITCRASQGISRHLNWYQQKPGKAPKLLIYAESTLQSGVPSRFSGSGSGTDFTLTISSLQPEDFATYYCQQTYTLPYTFGGGTKVEIKR
notes: as for B1
B3: SIGLEC-8-60 (antibody, human IgG1, kappa, V domains shown)
VH: EVQLLESGGGLVQPGGSLRLSCAASGFTLSNYAMTWVRQAPGKGLEWVSTVSGSGASTYYADSVKGRFTISRDNSKNTLYLQMNSLRAEDTAVYYCARENSGKYLSLDYWGQGTLVTVSS
VL: B2 VL with G28N, S30A, R31S, H32Y, E51T, T53D, T93N, L94I, Y96L
notes: as for B1
B4: SIGLEC-8-20 (antibody, human IgG1, kappa, V domains shown)
VH: EVQLLESGGGLVQPGGSLRLSCAASGFTFSSFDMTWVRQAPGKGLEWVSSISGGGGSTYYADSVKGRFTISRDNSKNTLYLQMNSLRAEDTAVYYCAREDGSGSYSMDVWGQGTLVTVSS
VL: DIQMTQSPSSLSASVGDRVTITCRASQSIDNYLHWYQQKPGKAPKLLIYAASNLEGGVPSRFSGSGSGTDFTLTISSLQPEDFATYYCQQSYKTPVTFGGGTKVEIKR
notes: as for B1
B5: SIGLEC-8-53 (antibody, human IgG1, kappa, V domains shown)
VH: B3 VH with L29F, N31S, Y32S, T35A, T50E, V51I, G53D, A56G, N100E, Y109H
VL: B4 VL with S28T, D30I, H34N, A50G, L54V, E55Q, G56S, K93V, V96P
notes: as for B1
B6: SIGLEC-8-52 (antibody, human IgG1, kappa, V domains shown)
VH: EVQLLESGGGLVQPGGSLRLSCAASGFTFRSYVMSWVRQAPGKGLEWVSSISLSGGSTYYADSVKGRFTISRDNSKNTLYLQMNSLRAEDTAVYYCAREESGKYLSLDHWGQGTLVTVSS
VL: B4 VL with I29V, D30S, Y32F, H34N, S91T, K93S, V96I
notes: as for B1
B7: SIGLEC-8-55 (antibody, human IgG1, kappa, V domains shown)
VH: EVQLLESGGGLVQPGGSLRLSCAASGFTFDDYAMSWVRQAPGKGLEWVSYISGSGGSTYYADSVKGRFTISRDNSKNTLYLQMNSLRAEDTAVYYCAKYRRYDSGLGGFDYWGQGTLVTVSS
VL: B4 VL with Q27R, N31T, H34N, A50D, N53T, E55Q, K93V, V96P
notes: tested as expressed and purified mAb; also called SIGLEC-55
B8: SIGLEC-8-4 (antibody, human IgG1, kappa, V domains shown)
VH: EVQLLESGGGLVQPGGSLRLSCAASGFSFSSDAMSWVRQAPGKGLEWVSGISGGGGSAYYADSVKGRFTISRDNSKNTLYLQMNSLRAEDTAVYYCAREGASNYAAFDIWGQGTLVTVSS
VL: DIQMTQSPSSLSASVEDRVTITCRAGQSITPYLNWYQQKPGKAPKLLIYATSSLHSGVPSRFSGSGSGTDFTLTISSLQPEDFATYYCQQSHSSPLTFGGGTKVEIKR
notes: as for B1
B9: SIGLEC-8-49 (antibody, human IgG1, kappa, V domains shown)
VH: EVQLLESGGGLVQPGGSLRLSCAASGFTFSTYAMHWVRQAPGKGLEWVSTISASGGSTYYADSVKGRFTISRDNSKNTLYLQMNSLRAEDTAVYYCAKSGGADYYYYGMDVWGQGTLVTVSS
VL: B8 VL with E16G, G26S, T30G, P31Y, A50G, H55Q, H92Y, S94T, T97N
notes: as for B1
B10: SIGLEC-8-45 (antibody, human IgG1, kappa, V domains shown)
VH: B8 VH with S28T, D32G, G50T, G54S, G56A, A58T, A101S, N103S, Y104W, A105N
VL: B4 VL with S28T, D30A, H34N, G56D, K93N, V96I
notes: as for B1
B11: SIGLEC-8-61 (antibody, human IgG1, kappa, V domains shown)
VH: EVQLLESGGGLVQPGGSLRLSCAASGFTFSSSAMTWVRQAPGKGLEWVTAISESGGSTYYADSVKGRFTISRDNSKNTLYLQMNSLRAEDTAVYYCAREGGDYYYGIDVWGQGTLVTVSS
VL: B8 VL with E16G, T30N, P31R, A50G, T51A, S53N, H55Q, H92F, S93T, S94T
notes: tested as expressed and purified mAb; also called SIGLEC-61
B12: SIGLEC-8-31 (antibody, human IgG1, kappa, V domains shown)
VH: B3 VH with L29F, N31T, Y32D, T35S, N100D
VL: B4 VL with D30T, H34N, A51S, N53T, G56S, K93I, V96L
notes: as for B1

T2 sequence (Q9NYZ4 17-363 limits assumed): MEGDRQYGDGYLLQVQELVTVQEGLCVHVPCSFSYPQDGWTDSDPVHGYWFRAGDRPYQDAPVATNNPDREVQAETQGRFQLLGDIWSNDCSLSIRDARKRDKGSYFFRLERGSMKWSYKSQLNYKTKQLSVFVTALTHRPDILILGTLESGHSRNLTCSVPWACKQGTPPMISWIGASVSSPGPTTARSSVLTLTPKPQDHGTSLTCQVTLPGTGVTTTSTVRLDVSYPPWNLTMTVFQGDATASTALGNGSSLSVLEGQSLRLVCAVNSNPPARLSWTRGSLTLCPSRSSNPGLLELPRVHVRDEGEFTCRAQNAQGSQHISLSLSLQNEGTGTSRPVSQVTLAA
T1 sequence (Q9NYZ4 17-499 limits assumed): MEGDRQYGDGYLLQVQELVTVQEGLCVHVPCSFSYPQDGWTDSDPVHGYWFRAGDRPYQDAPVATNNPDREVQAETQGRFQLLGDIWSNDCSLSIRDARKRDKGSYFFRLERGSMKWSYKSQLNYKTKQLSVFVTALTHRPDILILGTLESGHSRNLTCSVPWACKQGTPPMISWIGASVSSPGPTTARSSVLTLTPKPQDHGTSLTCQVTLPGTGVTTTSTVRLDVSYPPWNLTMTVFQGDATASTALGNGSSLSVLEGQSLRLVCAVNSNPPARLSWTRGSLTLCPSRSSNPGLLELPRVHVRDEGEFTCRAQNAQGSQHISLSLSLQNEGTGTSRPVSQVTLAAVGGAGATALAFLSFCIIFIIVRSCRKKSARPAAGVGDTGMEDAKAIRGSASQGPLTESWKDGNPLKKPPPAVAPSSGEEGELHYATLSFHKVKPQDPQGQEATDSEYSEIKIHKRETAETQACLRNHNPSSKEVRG

One assay has as its target T1, SIGLEC-8 transiently expressed on cells (UniProt Q9NYZ4 17-499, limits assumed).
T1 construct: whole, on cells; Two cassettes are described (P2A mVenus and direct mVenus fusion); also called the transient line; pTT5-SIGLEC-8 P2A mVenus
In words: cell binding titration, transient SIGLEC-8 line.
As usually defined, the EC50 is the midpoint of the concentration-response curve. A high value points to a need for much substance. As to B1, the EC50 was 0.939 nM. This counts as sub-nanomolar.

As for B2, the response was half-maximal at 1.5 nM (EC50). Against the preceding molecule, the EC50 is about 1.6-fold higher.

For the molecule B3, the EC50 came out at 0.653 nM.

As to B4, the response was half-maximal at 0.972 nM (EC50).

The molecule B5 came in with an EC50 of 0.69 nM.

Molecule B6 returned an EC50 of 4.07 nM.

The molecule B7 registered a half-maximal effective concentration (EC50) of 3.01 nM.

On to B8, for which the EC50 was 2.38 nM.

As to B9, the EC50 turned out to be 1.4 nM.

For the molecule B10, the EC50 came to 1.81 nM.

In turn, B11 showed a 50% effective concentration (EC50) of 0.494 nM.

In turn, B12 yielded an EC50 of 1.33 nM.

The next assay addresses T2, Sialic acid-binding immunoglobulin-like lectin 8 (SIGLEC-8), antigen of the Carterra SPR studies (UniProt Q9NYZ4 17-363, limits assumed). As to the kind of experiment: Carterra SPR kinetics, summary table. In short, it runs like this:
(§1)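 Binding kinetics of antibodies to SIGLEC-8 were measured by surface plasmon resonance on a Carterra instrument. The antibodies came from synthetic antibody libraries panned over four rounds with a bead-based strategy and screened by clonal ELISA. Selected clones were expressed and purified before testing. The read-outs are rate constants, dissociation constants or results from these kinetic runs.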
For orientation: SPR reads the build-up and loss of mass on a sensor chip optically.
For orientation: koff means a measure of how fast the partners let go of each other. High values mean fast dissociation, low ones slow dissociation. Usually kon stands for the rate constant with which the complex forms. Low readings indicate slower complex formation, high ones faster complex formation. In the case of B2, the koff was determined as 0.000124 s⁻¹ and the on-rate constant (kon) came to 145000 M⁻¹ s⁻¹.

In turn, B3 came in with a koff of 0.000116 s⁻¹ and a kon of 129000 M⁻¹ s⁻¹.

B4 yielded a dissociation rate constant (koff) of 3.4e-05 s⁻¹ and an on-rate constant (kon) of 445000 M⁻¹ s⁻¹.

The molecule B5 displayed a koff of 4.78e-05 s⁻¹ and a kon of 259000 M⁻¹ s⁻¹.

B6 yielded an off-rate constant (koff) of 6.22e-05 s⁻¹ and a kon of 84900 M⁻¹ s⁻¹.

Regarding B8, the off-rate (koff) was 3.12e-05 s⁻¹ and the kon is 165000 M⁻¹ s⁻¹.

Molecule B10 registered a koff of 8.37e-05 s⁻¹ and a kon of 146000 M⁻¹ s⁻¹.

B11: the off-rate constant (koff) turned out to be 3.67e-05 s⁻¹ and the on-rate constant (kon) was 390000 M⁻¹ s⁻¹.

B12 yielded a dissociation rate constant (koff) of 5.63e-05 s⁻¹ and a kon of 152000 M⁻¹ s⁻¹.

The next assay has as its target T2, Sialic acid-binding immunoglobulin-like …. As to the kind of experiment: Carterra SPR. In short, it runs like this: as §1
One may read the Kd as the equilibrium constant for the complex coming apart. Higher therefore signals weaker binding. B1 came in with a Kd of 31.2 nM. In other words, the double-digit nanomolar range.

As for B2, the affinity, expressed as Kd, was 0.856 nM. This Kd lies about 36-fold lower than the previous one.

B3 came in with a dissociation constant Kd of 0.895 nM.

B4 displayed a Kd of 0.0764 nM.

On to B5, for which the Kd turned out to be 0.185 nM.

Molecule B6 showed a Kd of 0.733 nM.

Molecule B7 showed a Kd of 1.61 nM.

In turn, B8 gave an equilibrium dissociation constant (Kd) of 0.189 nM. Compared with the last molecule, the Kd is about 8.5-fold lower.

On to B9, for which the dissociation constant (Kd) was 88.8 nM.

For B10, binding was put at a Kd of 0.574 nM. This Kd is about 150-fold lower than that of the molecule before.

On to B11, for which the Kd worked out at 0.0942 nM.

B12 registered an equilibrium dissociation constant (Kd) of 0.37 nM. This Kd is about 3.9-fold higher than that of the molecule before.
